For the assay, the target named is recombinant human CFD mutant 1 (R157A, R207A), His-tagged (human) (UniProt P00746). The assay can be described thus: ELISA.
Chain of recombinant human CFD mutant 1 (R157A, R207A), His-tagged (human) (P00746 26-253 R182A/R232A limits assumed): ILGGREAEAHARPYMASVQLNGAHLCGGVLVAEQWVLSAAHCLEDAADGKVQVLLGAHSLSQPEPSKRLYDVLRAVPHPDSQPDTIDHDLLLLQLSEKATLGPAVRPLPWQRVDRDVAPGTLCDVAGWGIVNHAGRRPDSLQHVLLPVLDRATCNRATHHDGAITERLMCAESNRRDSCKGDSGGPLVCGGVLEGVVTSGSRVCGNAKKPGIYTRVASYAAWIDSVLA

B1: KCD119 (antibody, V domains shown)
VH: EVQLQQSGPELVKPGASVKISCKASGYTFTDYYTNWMRQRHGESLEWIGDINPNTGDTSYNQKFRVKATLTVDKSSGTAYMGLRSLTSEDSAVYYCTREGPSFAYWGQGTLVTVSA
VL: DVLMTQTPLSLPVSLGDQASISCRSSQTIVHSNGDTYLEWYLQKPGQSPNLLIYKVSNRFSGVPDRFSGSGSGTDFTLKISRVEAEDLGVYYCFQGSHVPPTFGGGTTLEIK
Take B1: the Mut1 Binding (% wt) came out at 13.6 % wt.

Source of the values: patent publication US20180334496A1.
